Reference: patent publication US10660939 (PALATIN TECHNOLOGIES, dated 2020)
Positions of bridges follow the written chain, without caps; N, C: chain ends. Non-standard residues stand in square brackets, D forms with d. 2Nal = N[C@@H](Cc1ccc2ccccc2c1)C(=O)O; Aad = N[C@@H](CCCC(=O)O)C(=O)O; Orn = NCCC[C@H](N)C(=O)O; Dab = NCC[C@H](N)C(=O)O

Assays:
[1] = molecular target: T1, human melanocortin receptor-4 (human, UniProt P32245 1-332); assay: cell-based or functional assay
[2] = molecular target: T1, human melanocortin receptor-4; assay: ratio of Ki at hMC1r to Ki at hMC4r
[3] = molecular target: T1, human melanocortin receptor-4; assay: cell-based or functional assay; remark: listed apart in the source
[4] = molecular target: human melanocortin receptor-1 (human, UniProt Q01726 1-317); assay: cell-based or functional assay
human melanocortin receptor-1, sequence (Q01726 whole entry): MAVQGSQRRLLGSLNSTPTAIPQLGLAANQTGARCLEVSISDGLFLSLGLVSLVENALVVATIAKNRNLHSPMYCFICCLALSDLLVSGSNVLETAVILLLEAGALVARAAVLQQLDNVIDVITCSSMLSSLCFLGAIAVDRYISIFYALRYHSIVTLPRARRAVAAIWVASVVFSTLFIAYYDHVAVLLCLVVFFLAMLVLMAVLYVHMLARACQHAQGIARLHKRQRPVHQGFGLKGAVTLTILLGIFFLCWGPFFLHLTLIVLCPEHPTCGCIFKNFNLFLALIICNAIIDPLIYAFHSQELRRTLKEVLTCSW

[5] = molecular target: T1, human melanocortin receptor-4; assay: competition with [I125]-NDP-α-MSH, hMC4r HEK-293 membranes
[6] = molecular target: T1, human melanocortin receptor-4; assay: competition with Eu-NDP-α-MSH, hMC4r HEK-293 membranes
Procedure: After incubation for 90 minutes at 37° C., the reaction was stopped by filtration over AcroWell 96-well filter plates (Pall Life Sciences). The filter plates were washed 4 times with 200 μL of ice-cold phosphate-buffered saline. DELFIA Enhancement solution (PerkinElmer Life Sciences) was added to each well. The plates were incubated on a shaker for 15 minutes and read at 340 nm excitation and 615 nm emission wavelengths. Each assay was conducted in duplicate and mean values were utilized. Ki values were determined by curve-fitting with Graph-Pad Prism® software using a one-site fixed-slope competition binding model.

T1 sequence (P32245 whole entry): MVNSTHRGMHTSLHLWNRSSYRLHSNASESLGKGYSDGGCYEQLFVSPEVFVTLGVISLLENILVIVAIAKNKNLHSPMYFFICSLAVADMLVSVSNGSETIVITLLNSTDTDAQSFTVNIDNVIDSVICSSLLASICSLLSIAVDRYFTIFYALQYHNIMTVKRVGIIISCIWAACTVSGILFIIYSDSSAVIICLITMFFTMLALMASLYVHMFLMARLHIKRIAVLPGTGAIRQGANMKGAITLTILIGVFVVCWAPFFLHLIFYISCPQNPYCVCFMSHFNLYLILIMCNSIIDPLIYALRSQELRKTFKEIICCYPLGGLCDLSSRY

| hMC4r Emax [3] | hMC1r EC50 [4] | hMC1r Emax [4] | further results | Binder |
| --- | --- | --- | --- | --- |
| – | – | – | intrinsic activity (cAMP, NDP-α-MSH is 100%) [1]: 101% | Ac-R[Aad]H[dF]RW[Dab]-NH2 (lactam 2-7) [Peptide No. 126] |
| 99% | 26 nM | 98% | binding selectivity, MC4r against MC1r [2]: 20 fold; hMC4r EC50 [3]: 0.825 nM | RXQFRWX (N-terminal Ac; Dab 2 (X); D-Phe 4; hGlu 7 (X); cyclo(Dab 2-hGlu 7); C-terminal NH2, also called Ac-Arg-cyclo(Dab-Gln-D-Phe-Arg-Trp-hGlu)-NH2) [Peptide No. 159] |
| 98% | – | – | hMC4r EC50 [3]: 0.245 nM | Ac-R[Aad]N[dF]RW[Dab]-NH2 (lactam 2-7, also called Ac-Arg-cyclo(hGlu-Asn-D-Phe-Arg-Trp-Dab)-NH2) [Peptide No. 160] |
| – | – | 89% | – | Ac-R[Orn]Q[dF]RWE-NH2 (lactam 2-7) [Peptide No. 150] |
| 91% | 13 nM | 85% | binding selectivity, MC4r against MC1r [2]: 20 fold; hMC4r EC50 [3]: 0.413 nM | Ac-REN[dF]RW[Orn]-NH2 (lactam 2-7, also called Ac-Arg-cyclo(Glu-Asn-D-Phe-Arg-Trp-Orn)-NH2) [Peptide No. 161] |
| 97% | 14 nM | 91% | binding selectivity, MC4r against MC1r [2]: 20 fold; hMC4r EC50 [3]: 0.189 nM | Ac-RKN[dF]RWD-NH2 (lactam 2-7, also called Ac-Arg-cyclo(Lys-Asn-D-Phe-Arg-Trp-Asp)-NH2) [Peptide No. 155] |
| – | – | – | intrinsic activity (cAMP, NDP-α-MSH is 100%) [1]: 91% | Ac-RDH[dF]RWK-NH2 (lactam 2-7) [Peptide No. 1] |
| – | – | – | intrinsic activity (cAMP, NDP-α-MSH is 100%) [1]: 98% | Ac-RDQ[dF]RWK-NH2 (lactam 2-7) [Peptide No. 32] |
| – | – | – | Ki [5]: 0.65 nM | Ac-RE[Dab][dF]RW[Orn]-NH2 (lactam 2-7, also called Ac-Arg-cyclo(Glu-Dab-D-Phe-Arg-Trp-Orn)-NH2) [Peptide No. 165] |
| 89% | – | 85% | – | Ac-[dR][Orn]Q[dF]RWE-NH2 (lactam 2-7) [Peptide No. 152] |
| – | 25 nM | – | – | Ac-R[Orn]N[dF]RWE-NH2 (lactam 2-7) [Peptide No. 154] |
| – | 80 nM | 81% | – | Ac-[dR][Orn]N[dF]RWE-NH2 (lactam 2-7) [Peptide No. 156] |
| – | – | – | intrinsic activity (cAMP, NDP-α-MSH is 100%) [1]: 42% | Ac-RDV[dF]RWK-NH2 (lactam 2-7) [Peptide No. 16] |
| 89% | – | 88% | – | Ac-[dR]DQ[dF]RWK-NH2 (lactam 2-7) [Peptide No. 71] |
| – | – | – | Ki [6]: 4 nM | RDRFRWK (N-terminal Ac; D-Phe 4; cyclo(Asp 2-Lys 7); C-terminal NH2, also called Ac-Arg-cyclo(Asp-Arg-D-Phe-Arg-Trp-Lys)-NH2) [Peptide No. 28] |
| – | – | – | Ki [6]: 60 nM | RDRFRWK (N-terminal Ac; D-Phe 4; cyclo(Asp 2-Lys 7); C-terminal OH, also called Ac-Arg-cyclo(Asp-Arg-D-Phe-Arg-Trp-Lys)-OH) [Peptide No. 73] |
| 82% | 22 nM | 89% | binding selectivity, MC4r against MC1r [2]: 20 fold; hMC4r EC50 [3]: 0.85 nM | Ac-RKN[dF]R[2Nal]D-NH2 (lactam 2-7; SMILES CC(=O)N[C@@H](CCCNC(=N)N)C(=O)N[C@H]1CCCCNC(=O)C[C@@H](C(N)=O)NC(=O)[C@H](Cc2ccc3ccccc3c2)NC(=O)[C@H](CCCNC(=N)N)NC(=O)[C@@H](Cc2ccccc2)NC(=O)[C@H](CC(N)=O)NC1=O, also called Ac-Arg-cyclo(Lys-Asn-D-Phe-Arg-Nal2-Asp)-NH2) [Peptide No. 162] |
| – | – | – | intrinsic activity (cAMP, NDP-α-MSH is 100%) [1]: 95% | Ac-R[Dab]H[dF]RW[Aad]-NH2 (lactam 2-7) [Peptide No. 128] |
